Experimental data published in the supplement of paper PMC10724198.
± gives the standard deviation of the averaged measurements.

System: Saccharomyces cerevisiae
Assay: protein stability index of tFT-peptide fusion (C-terminal peptide) (PSI (0-1 scale)); higher = more stable (slower turnover)
Details: genetic background: wild type; temperature: 30 C
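Further: PSI is a weighted mean of sequencing reads over stability bins, variants kept only with over 10 reads, mCherry proximal and sfGFP distal, peptide attached via GGGS linker.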

VLLLLPASTPSL and VLMGAGGHSWER are within error of each other in protein stability index: 0.696 ± 0.079 for the first, 0.725 ± 0.037 for the second.

First: VLNCVGLSLLVE
Second: VLPPLPGPPTLS
The protein stability index of the first is lower: 0.6068 ± 0.00076 for the first, 0.6945 ± 0.0033 for the second.

First: VLPPPRHPLPRP
Second: VLSCCTAVAYPF
The protein stability index of the first is higher: 0.698 ± 0.04 for the first, 0.593 ± 0.028 for the second.

VLSLLPSLLPPF and VLSSSPFLHFGC are within error of each other in protein stability index: 0.7408 ± 0.0061 for the first, 0.663 ± 0.072 for the second.

VLSVGQVGRCVS and VLTWGLLGRSAF are within error of each other in protein stability index: 0.642 ± 0.043 for the first, 0.729 ± 0.063 for the second.

VLYCYPYLVLPP and VNATDYDGQPIT are within error of each other in protein stability index: 0.678 ± 0.013 for the first, 0.679 ± 0.11 for the second.

Going from VNENNQKGNKKT to VNIHVCSYGIFA, the protein stability index falls from 0.654 ± 0.12 to 0.5071 ± 0.0025.

First: VNKNKKNVEYIK
Second: VNQVRVSICDLL
The protein stability index of the first is lower: 0.657 ± 0.013 for the first, 0.69263 ± 0.00047 for the second.

Compared with VPCLVHEVYDEV, VPFPHALLSALP is lower in protein stability index: 0.732 ± 0.029 for the first, 0.638 ± 0.037 for the second.

VPGIGGGVSVRG and VPLCSGKLAQIS are within error of each other in protein stability index: 0.612 ± 0.14 for the first, 0.757 ± 0.0085 for the second.

First: VPLPPPFPASLT
Second: VPPHSLPPPTHP
The protein stability index of the first is lower: 0.61 ± 0.027 for the first, 0.753 ± 0.048 for the second.

VPPPPPSRSRPV and VPPPTRRTPPAP are within error of each other in protein stability index: 0.713 ± 0.032 for the first, 0.734 ± 0.052 for the second.

First: VPPVLRPLPPSP
Second: VPRFTPYRAIFP
The protein stability index of the first is higher: 0.72 ± 0.025 for the first, 0.591 ± 0.016 for the second.

VPRTPPTTSWFP and VPSPHLQPTVSP are within error of each other in protein stability index: 0.682 ± 0.026 for the first, 0.654 ± 0.0074 for the second.

VPTELGGTLIPT and VPVRLRSGGVSP are within error of each other in protein stability index: 0.664 ± 0.11 for the first, 0.66 ± 0.058 for the second.

Compared with VPVVQPNRSALI, VQQSRTQKDQHV is lower in protein stability index: 0.7454 ± 0.0071 for the first, 0.623 ± 0.054 for the second.

Compared with VQRPALPPRHPP, VRARRSSREVNY is higher in protein stability index: 0.612 ± 0.005 for the first, 0.755 ± 0.05 for the second.

VRCCFGGRGGRA and VRCGGRGRAGKG are within error of each other in protein stability index: 0.637 ± 0.035 for the first, 0.634 ± 0.03 for the second.

VRCWEDGFLDSS and VREMMGFWFVPL are within error of each other in protein stability index: 0.7293 ± 0.0042 for the first, 0.691 ± 0.11 for the second.

VRFPCGFCKKLS and VRFYVFSFSNWL are within error of each other in protein stability index: 0.637 ± 0.036 for the first, 0.586 ± 0.031 for the second.

VRGGVSWGMRGG and VRGVGGLWVGAV are within error of each other in protein stability index: 0.634 ± 0.089 for the first, 0.684 ± 0.012 for the second.

VRGVGLVDVVGL and VRIIVVDLGGRR are within error of each other in protein stability index: 0.727 ± 0.12 for the first, 0.684 ± 0.0082 for the second.

VRKKGKKKKKDK and VRKKRKKELAKV are within error of each other in protein stability index: 0.678 ± 0.031 for the first, 0.794 ± 0.086 for the second.

VRQSQIKHVVVQ and VRRLSASSDGKI are within error of each other in protein stability index: 0.627 ± 0.019 for the first, 0.761 ± 0.14 for the second.

VRRWGKWSIVGW and VRSILEGRRGEK are within error of each other in protein stability index: 0.736 ± 0.03 for the first, 0.709 ± 0.032 for the second.

VRSTPLKEMMRH and VRVRSLEGWGMG are within error of each other in protein stability index: 0.681 ± 0.0092 for the first, 0.6687 ± 0.0048 for the second.

VRVSSSDILICL and VRWSRFCLAFPV are within error of each other in protein stability index: 0.675 ± 0.079 for the first, 0.605 ± 0.04 for the second.

VSDTRELSSDQI and VSFGFHKWCHSR are within error of each other in protein stability index: 0.656 ± 0.02 for the first, 0.638 ± 0.015 for the second.

VSGGRQVGGGGW and VSGGRQVGWGGW are within error of each other in protein stability index: 0.72 ± 0.088 for the first, 0.686 ± 0.011 for the second.

Compared with VSGICCRGVLLL, VSGLGAHEPDKL is higher in protein stability index: 0.6268 ± 0.00045 for the first, 0.667 ± 0.0072 for the second.

VSGSTGVWCRWG and VSGVREGCSEME are within error of each other in protein stability index: 0.668 ± 0.048 for the first, 0.773 ± 0.11 for the second.

VSLGHGYVFRRV and VSMPVGWRSWGG are within error of each other in protein stability index: 0.6921 ± 0.0058 for the first, 0.694 ± 0.013 for the second.

VSPTRSRPSSPA and VSRLTVIPAVQT are within error of each other in protein stability index: 0.692 ± 0.055 for the first, 0.652 ± 0.027 for the second.

Going from VSRRCVALRVGN to VSRVDGAGHSAV, the protein stability index rises from 0.579 ± 0.017 to 0.66 ± 0.0088.

VSSAGAQHQVTH and VSSRWGGWWNGV are within error of each other in protein stability index: 0.667 ± 0.025 for the first, 0.655 ± 0.046 for the second.

VSSVEHCLGHCR and VSVFNFPSLFVG are within error of each other in protein stability index: 0.738 ± 0.11 for the first, 0.66 ± 0.063 for the second.

Going from VSVGVCGYKVWG to VSVILAGLFWIT, the protein stability index falls from 0.709 ± 0.1 to 0.473 ± 0.038.

VSVLCADGVLRM and VSVLCGSRLAFE are within error of each other in protein stability index: 0.725 ± 0.028 for the first, 0.685 ± 0.04 for the second.

VSVRLAINRKEW and VSWVMSEMRKGE are within error of each other in protein stability index: 0.6738 ± 0.00093 for the first, 0.697 ± 0.031 for the second.

VSWVWMGRLGYC and VTCALGIGGVGV are within error of each other in protein stability index: 0.657 ± 0.02 for the first, 0.716 ± 0.05 for the second.

In the case of VTFRCHHSRQVM, the protein stability index is reported as 0.725 ± 0.14.
